From PMC13381548

System: NX4-NS20-NX1 (X-NS20-X) (designed (from TALE PthXo1))
Test: BLI
Details: BLI: 25 mM Tris (pH 7 for NS20, pH 8 for NS14), 150 mM NaCl, 10 mM MgCl2, 0.5% BSA, 0.5% Tween-20, 25 C, EMSA: 1% agarose, 1x TAE, 110 V

Sequence	Kd (10 mM MgCl2, stated weak interactions, Kd > ~700 nM) [nM]	Kd [nM]
AAAAAAATCAGACCGACATCTAATCCGCAACGA (double strand) [X-NS20-X random]	> 700	–
AAAAAAATCTAGCAACCTCAAACAGACACCAGA (double strand) [X-NS20-X target]	–	45
